Earlier results in patent US20190360013.

System: mEcSSB (monomeric E. coli SSB) (Escherichia coli)
Conditions: CITED; at ion concentrations optimal for TdT; footprint 65 nt

Q: For ssDNA (65-nt footprint), which Kd is on record?
A: < 1 pM
